Experimental data reported in article PMC6677536 (2019).

B1: Full-length Nxf2, 3xFLAG-tagged [D. melanogaster] / Full-length Panx, HA-tagged [D. melanogaster] (parent complex)
chain 1: MPNQMRVLDFGDGSVPIQLDYPDSKIFSKCSSYGDRVPGTHWNEITVHHKGRLEYSPNPEQIILDALYQAIDGADFFPVFYQRGKNMDTMLVRNCKAAIDKLFKQRLSINLKGGASIPISIQLGVAQYQRHQITPTFHIARVVTRLMKQLIQRDGVDGLLNLDNFGSHPEFKNLVVSLGNPSILMNVCQVIHNDDNERFRLNGFILSNNRIRDIRPLTLLANVDYALLDLRGNKIKSAERLCRALEQFRARELLLENNPIVKISNFPANIKSLESNFELVDGKPFNMLHKIFSPLDVEIDLEVDGARIDTNNMWKLPEFENSQHWHAFMIPDPSHEFNQEVFFDFFFIRLDPTLSNFYPCYYKYINTEHVFLVRNCFDQIAHLVNNCNLEMTIPTGDRIFRYYLRMNVSTVKQHHVDPEECIQKAVSQCYVAQNRMLNLERFHSRECLKDVMVSLSSPKILTYVLSVASRKFMTTCSEIRLCHNKVLVLDGAHVLGMMGCLRAVDLSHNWVQDLSSIHSLGNLPLKSLVLHGNKLCRNYRLPSEYVRAVKEVFPQLTTLDGVDLQTNPGQSLQKNFLCDTGAYELVGAFLENYLREFENDEFRHNLYKYYSENSIFTLTCNYNVVQNHQTPKILQRLSKYNRHARNLRNKDYSKASDGVFFGCTYIVEILLQLPRVTHDFHSLQTDVMHYNGKGAVIYVAGLLRDEPPSTRNGHGSKTDIGGVLLGFSRQFVVTFDEANLGLGKRARRLKIANERLHITNPSKTAIRNAFSVNFPDPSERQAEEDSLDVKDHKLLLFQEVTGLISTWVTSIVEEADWDFERALKLFIQKNADHEIPDLAFA
chain 2: MEAPMKLEVKVENYVECGINEDEATPLREGTGETPPHAFACGVPMSGSGWCSDPEDGNLVHHSATPTSDEHLQPSLDTIEPKMEPKIKEDADNAMLDSLLADPFENNSPATLQTPADVKPNAMLDSVEQGSRSCELLPSEFSKRENLDDMDLFSLKAAKTLVPDEQQSFPQNDTPIDDPEAADLIAQKREILKMLEMTAENRKVKHKKKKHKKERSHRSNKHQEESRKRNHSNSSSDEGADDKNQFDCDYRGHKKYKNRRGSASSQNESSKERKLRDTELDYVPVRPDEHFIRPIKFSNLIERRPPQVEFNTVNLSKADKRSLAVARAELVLEQIQQKANKEEPPEFHMVDTICKLPVNESFRNQDCFENPSPICNNMNVVYKFNSTPGTRIDLSKWGLETVPEATKRLLRLLGIDVARLKELQSTVKPSQRILKLKKEQLEQGLAPTEEQETATLYKNAATQTERRTATRDAGTQVRLESKLNGAFWQNPHFDPMNLTQHQSNVMLALQEIYQTLPSATMAVKLSRALAPALAIIKGRQP

Variants of: B1
Assay: FLAG-tag co-immunoprecipitation, western blot quantification; lysates of transfected S2 cells; read off a plot

| Variant | log10 ratio |
| --- | --- |
| chain 1 R755G | ~-0.45 log10 coIP index [arbitrary unit] |
